Test results: US20130337438A1 (JAPAN HEALTH SCIENCES FOUNDATION, published 2013)

What was measured:
HPV16 L1/L2-capsid = target: T1, HPV16 L1/L2-capsid (human papillomavirus type 16, UniProt P03107 1-473; P03101 1-505); assay: hybridoma screening ELISA on HPV16 L1/L2-capsid
T1 construct: Capsid of co-expressed L1 and L2; It was made in 293FT cells (Test Method 2) or in Sf9 insect cells with baculovirus (Test Method 3); The pseudovirus of Test Method 1 is the same capsid carrying a SEAP plasmid; also called L1/L2-capsid of type 16; HPV16 pseudovirus (PsV)
T1 sequence 1: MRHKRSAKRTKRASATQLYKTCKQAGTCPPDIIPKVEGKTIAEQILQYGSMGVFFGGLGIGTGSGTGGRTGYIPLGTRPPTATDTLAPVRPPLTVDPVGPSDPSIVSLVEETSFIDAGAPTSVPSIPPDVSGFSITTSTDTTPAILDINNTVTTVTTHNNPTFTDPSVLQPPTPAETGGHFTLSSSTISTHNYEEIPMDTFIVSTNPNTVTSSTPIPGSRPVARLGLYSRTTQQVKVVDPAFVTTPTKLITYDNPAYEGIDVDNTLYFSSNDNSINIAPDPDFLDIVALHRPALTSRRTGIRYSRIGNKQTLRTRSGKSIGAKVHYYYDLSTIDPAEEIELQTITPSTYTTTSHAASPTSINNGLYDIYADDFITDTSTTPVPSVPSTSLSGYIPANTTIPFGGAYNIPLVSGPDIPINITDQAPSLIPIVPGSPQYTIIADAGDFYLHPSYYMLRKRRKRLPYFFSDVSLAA
T1 sequence 2: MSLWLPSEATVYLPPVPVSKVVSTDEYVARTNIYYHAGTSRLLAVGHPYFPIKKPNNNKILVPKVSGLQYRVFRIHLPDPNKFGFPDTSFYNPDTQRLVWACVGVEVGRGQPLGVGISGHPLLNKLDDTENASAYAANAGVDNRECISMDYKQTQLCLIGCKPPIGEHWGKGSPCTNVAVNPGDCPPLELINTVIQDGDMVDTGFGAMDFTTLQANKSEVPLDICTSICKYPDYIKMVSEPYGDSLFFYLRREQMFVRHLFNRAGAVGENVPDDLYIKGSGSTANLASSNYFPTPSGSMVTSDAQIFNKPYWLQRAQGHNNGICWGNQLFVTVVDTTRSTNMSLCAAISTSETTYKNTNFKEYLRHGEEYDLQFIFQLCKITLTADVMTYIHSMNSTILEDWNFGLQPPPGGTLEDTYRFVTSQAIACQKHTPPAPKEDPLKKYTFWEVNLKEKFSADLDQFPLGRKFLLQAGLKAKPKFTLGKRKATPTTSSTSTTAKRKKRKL

[1] = target: T2, P56/75 (amino acids 56-75 of HPV16 L2 protein) (human papillomavirus type 16, conjugated with keyhole limpet hemocyanin (KLH) via cysteine); assay: affinity purification on KLH-P56/75 sepharose
T2 construct: Synthetic peptide; It was conjugated with KLH via an added cysteine (KLH-P56/75); also called KLH-P56/75; L2 peptide (56-75)
T2 peptide: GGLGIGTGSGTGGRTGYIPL

HPV31 L1/L2-capsid = target: T3, HPV31 L1/L2-capsid (human papillomavirus type 31, UniProt P17389 1-466; P17388 1-504); assay: ELISA on immobilized L1/L2-capsid, purified antibody 250 ng/well
T3 construct: Capsid of co-expressed L1 and L2 from 293FT cells; The pseudovirus is the same capsid with a reporter plasmid; also called L1/L2-capsid of type 31; HPV31 pseudovirus
T3 sequence 1: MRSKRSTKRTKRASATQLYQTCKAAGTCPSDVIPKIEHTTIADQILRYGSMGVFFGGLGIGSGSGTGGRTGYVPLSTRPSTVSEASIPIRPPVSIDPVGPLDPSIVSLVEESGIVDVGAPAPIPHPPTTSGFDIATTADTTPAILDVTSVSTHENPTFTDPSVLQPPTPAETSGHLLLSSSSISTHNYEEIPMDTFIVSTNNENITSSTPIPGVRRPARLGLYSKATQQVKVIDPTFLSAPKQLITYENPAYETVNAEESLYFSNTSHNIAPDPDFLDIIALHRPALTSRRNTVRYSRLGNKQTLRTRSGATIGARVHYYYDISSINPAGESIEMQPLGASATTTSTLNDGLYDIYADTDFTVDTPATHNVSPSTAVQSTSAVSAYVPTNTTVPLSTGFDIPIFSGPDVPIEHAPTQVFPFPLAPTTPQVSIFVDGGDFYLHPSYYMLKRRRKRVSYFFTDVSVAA
T3 sequence 2: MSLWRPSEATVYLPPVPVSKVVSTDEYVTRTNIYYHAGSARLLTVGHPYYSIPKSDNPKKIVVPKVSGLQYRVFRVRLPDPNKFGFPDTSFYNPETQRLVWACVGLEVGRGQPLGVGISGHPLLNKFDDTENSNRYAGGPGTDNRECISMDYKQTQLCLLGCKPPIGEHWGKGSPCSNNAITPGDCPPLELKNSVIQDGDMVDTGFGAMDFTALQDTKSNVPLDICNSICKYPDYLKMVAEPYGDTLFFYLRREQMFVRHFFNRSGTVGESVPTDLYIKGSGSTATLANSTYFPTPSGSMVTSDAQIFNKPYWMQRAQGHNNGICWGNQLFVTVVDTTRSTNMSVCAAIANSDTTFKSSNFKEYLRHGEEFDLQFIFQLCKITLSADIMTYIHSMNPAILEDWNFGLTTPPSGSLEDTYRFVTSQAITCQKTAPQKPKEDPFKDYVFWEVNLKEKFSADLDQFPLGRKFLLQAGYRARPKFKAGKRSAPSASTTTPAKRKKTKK

Measured: binding result

B1: monoclonal antibody 24B (antibody, V domains shown)
VH: EVQLQQSGTVLARPGASVKMSCKASVYSFPSNWMHWVKQRPGQGLEWIGAIYPGTGATRYNQKFKDKAKLTAVTSADTAYMELSSLTDEDSAVYYCTGYSLYWGQGTILTVSS
VL: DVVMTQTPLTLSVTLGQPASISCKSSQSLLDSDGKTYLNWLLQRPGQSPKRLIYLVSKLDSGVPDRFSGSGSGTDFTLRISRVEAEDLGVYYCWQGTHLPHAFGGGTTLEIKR
notes: Used as mouse ascites or as antibody purified from ascites; also called Mouse-Mouse hybridoma 24B (FERM BP-11305)
binds: HPV16 L1/L2-capsid | [1] | HPV31 L1/L2-capsid

B2: monoclonal antibody 13B (antibody, V domains shown)
VH: DVQLQESGPGLVKPSQSLSLSCTVTGYSITSDSAWNWIRQFPGNKLEWMGYITFSGSTNYNPSLKSRLSITRDTSKNQFFLQLNSVTTEDTATYYCTGPFLDYWGQGTTLTVSS
VL: DVVMTQTPLSLPVSLGDQATISCRSSLSLVLSNRITYLQWYLQKPGQSPKLLIYKVSNRFSGVPDRFSGSGSGTDFTLKISRVEAEDLGVYFCSQSSHFPWTFGGGTKLEIKR
notes: Used as mouse ascites or as antibody purified from ascites; also called Mouse-Mouse hybridoma 13B (FERM BP-11304)
binds: HPV16 L1/L2-capsid | [1] | HPV31 L1/L2-capsid
